Test results published in US11813311B2, “Treatment and prevention of metabolic diseases” (Singapore Health Services PTE LTD., priority 2019, dated 2023).

B1: X209: mouse anti-mouse IL-11Rα IgG (IgG1κ), neutralising; VH SEQ ID NO:24, VL SEQ ID NO:25 (antibody, V domains shown)
VH: QVQLQQPGAELVRPGSSVKLSCKASGYTFTNYWMHWLKQRPVQGLEWIGNIGPSDSKTHYNQKFKDKATLTVDKSSSTAYMQLNSLTSEDSAVYYCARGDYVLFTYWGQGTLVTVSA
VL: DIVLTQSPATLSLSPGERATLSCRASQSISNNLHWYQQKSHEAPRLLIKYASQSISGIPARFSGSGSGTDFTLSFSSLETEDFAVYFCQQSYSWPLTFGQGTKLEIK
modifications: Enx209 VH; Enx209 VL
B2: X203: mouse anti-mouse IL-11 IgG (IgG1κ), neutralising; VH SEQ ID NO:22, VL SEQ ID NO:23 (antibody, V domains shown)
VH: EVQLQQSGPELVKPGASVKIPCKASGYTFTDYNMDWVKQSHGKSLEWIGDINPHNGGPIYNQKFTGKATLTVDKSSSTAYMELRSLTSEDTAVYYCARGELGHWYFDVWGTGTTVTVSS
VL: DIVLTQSPASLAVSLGQRATISCRASKSVSTSGYSYIHWYQQKPGQPPKLLIYLASNLDSGVPARFSGSGSGTDFTLNIHPVEEEDAATYYCQHSRDLPPTFGGGTKLEIK
modifications: Enx203 VH; Enx203 VL

Experiments:
Assay type in all cases: in vivo, mouse
[1] = system: mice with folate-induced kidney injury; assay: Weight loss after folate-induced acute kidney injury
Procedure: Kidney injury was induced by IP injection of folic acid (180 mg/kg) in vehicle (0.3M NaHCO3) to 10-week old male mice; control mice were administered vehicle alone. Animals were sacrificed 28 days post-injection. Mice were intraperitoneally injected every 3 days with 20 mg/kg of anti-IL-11 antibody, anti-IL-11 RA antibody or identical concentration of IgG isotype control starting from 1 hour before folic acid administration until the mice were sacrificed.
In a second experiment kidney injury was induced as before by IP injection of folic acid. Mice were only treated with anti-IL-11 antibody or IgG control from 21 days after kidney injury. Animal weight was assessed before and after antibody treatment.

[2] = Long-term high dose preclinical toxicology of X209 and X203; conditions: 10 mg/kg ×2/week, 5 months
Procedure: FIGS. 19A to 19J. Anti-IL-11 therapies inhibit HSC-to-myofibroblasts transformation in an ERK dependent manner and have a favourable metabolic safety profile. (A) Dose-response curve and IC50 value of X203 and X209 and ([…] to 4 μg/ml; 4-fold dilution) in inhibiting MMP2 secretion by TGFβ1-stimulated HSCs. (B) ELISA of IL-11 secretion from HSCs stimulated with various NASH factors (n≥5/group). (C) Representative fluorescence images and quantification of ACTA2^+ve cells from HSCs treated with TGFβ1 and other NASH factors in the presence of IgG, X203, or X209 (scale bars, 100 μm and dotted line represents the median value of baseline). (D) Effects of X203 and X209 on PDGF- or CCL2-induced HSC invasion. (E) Western blots of p-ERK and ERK in HSC lysates stimulated IL-11 (upper panel) or with various NASH factors in the presence of IgG or X209 (bottom panel). (F) Representative fluorescence images and quantification of ACTA2^+ve cells in HSCs treated with IL-11 and important NASH factors in the presence of ERK/MEK inhibitors U0126 or PD98059 (scale bars, 100 μm and dotted line represents the median value of baseline). (A-F) TGFβ1 (5 ng/ml), IL-11 (5 ng/ml), PDGF (20 ng/ml), AngII (100 nM), bFGF (10 ng/ml), CM (5 ng/ml), H2O2 (0.2 mM), IgG, X203 and X209 (2 μg/ml), U0126 or PD98059 (10 μM); (A,C,E-F) 24 h; (B,D) 48 h. (G) Peripheral platelet counts, (H) serum ALT levels, (I), serum triglycerides levels, and (J) serum cholesterol levels from mice injected biweekly with 10 mg/kg of X203 and X209 for 5 months (n≥5/group). (B,D) Data are shown as mean±s.d; (C,F,G-J) data are shown as box-and-whisker with median (middle line), 25th-75th percentiles (box) and min-max percentiles (whiskers). (B,D,G-J) Two-tailed Dunnett's test; (C, F) two-tailed, Tukey-corrected Student's t-test. FC: fold change.
The published literature on IL-11 in the liver is limited but injection of high dose recombinant human IL-11 into rodents has been associated with protective effects^13,14 and there is confusion as to a role for IL-11 in platelets biology^25. To exclude safety issues, the inventors performed long-term (5 months) high dose (10 mg/kg×2/week) preclinical toxicology studies of X209 and X203 and observed no effect on serum ALT levels or platelets (FIG. 19G-19H). Consistent with the data in the Il11ra^−/− mice, anti-IL-11 therapies lowered, or trended towards lowering, serum lipid levels during this treatment period (FIGS. 19I-19J).

HFMCD-fed mice = assay: HFMCD diet model of cachexia-related weight loss
Text: High fat methionine choline deficient diet (HFMCD) was used to establish cachexia-like metabolic disorder. In order to establish cachexia weight loss and lean mass loss, C57BL/6N mice were fed with methionine and choline deficient (HFMCD) diet supplemented with 60 kcal % fat (A06071301B, Research Diets).
Five-week old male mice were fed a methionine- and choline-deficient (MCD) diet with 60 kcal % fat (A06071301B, Research Diets), designated a high fat MCD (HFMCD) diet, which causes more severe NASH than an MCD diet alone. Control mice were fed with normal chow (NC; Specialty Feeds). Mice were intraperitoneally injected twice per week with 10 mg/kg of anti-IL-11 antibody or anti-IL-11 RA antibody, or identical concentration of IgG isotype control one week after they had received HFMCD for the same treatment duration. Body weight was measured weekly.
To investigate further the effect of inhibition of IL-11-mediated signalling with respect to cachexia, a range of doses of anti-IL-11 therapy were studied in the MCD model. Five-week old male mice were fed on the HFMCD or NC diet as before for one week to induce cachexia, resulting in a ˜15% loss in body weight in MCD mice. After the initial week, mice were intraperitoneally injected twice per week with 0.5, 1, 5 or 10 mg/kg of anti-IL-11 or anti-IL-11 RA antibody. Three antibodies were studied: two anti-IL-11 ((1) and (2)), and one anti-IL-11 RA. 10 mg/kg of IgG isotype antibody was used as a control.
Body weight and food consumption were measured weekly. For food consumption, average food intake was measured (g/mouse/week) in food hoppers from cages (n=3 mice per cage).

[3] = 20 mg/kg every 3 days from 1 hour before folic acid
[4] = 0.5, 1, 5 or 10 mg/kg twice per week

Molecule	body weight [1, 3]	platelets [2]	serum ALT levels [2]	body weight (HFMCD-fed mice; 10 mg/kg twice per week from week 1, listed as anti-IL-11 RA, 10 mg/kg)	body weight (HFMCD-fed mice; 10 mg/kg twice per week from week 1, listed as anti-IL-11Rα, 10 mg/kg)	body weight (HFMCD-fed mice; [4])	food consumption (HFMCD-fed mice; [4])	body weight ([1]; treated from 21 days after kidney injury)	body weight (HFMCD-fed mice; 10 mg/kg twice per week from week 1, listed as anti-IL-11, 10 mg/kg)
B1	returned to normal, or near normal, weight by 3 weeks later	no effect	no effect	quickly regained weight and returned to normal, or near-normal, weight by 5 weeks later	returned to normal or near-normal weight	most effective in reversing weight loss	greatest increase in food intake	–	–
B2	returned to normal, or near normal, weight by 3 weeks later	no effect	no effect	–	–	–	–	started to regain weight upon initiation of treatment	quickly regained weight and returned to normal, or near-normal, weight by 5 weeks later
